Molecular target: α-synuclein (Homo sapiens, UniProt P37840)
Experiment: fluorescence anisotropy

Kd: ~1000 nM
Binder: GVLWVGSKTR [Y39W β-syn 36D]
